The record followed here is EP4676971A2 (dated 2026).

Changes are numbered by the printed parent chain. Several values for one entry are separate records, joined by “and”; a condition that tells them apart may be missing. Equal values may be shown once.

To fix the notation:
T1: DR3 receptor on human TF-1 cells (human, UniProt Q93038 25-417)
T1 construct: whole, on cells; also called death receptor 3; TNFRSF25
T1 sequence (looked up): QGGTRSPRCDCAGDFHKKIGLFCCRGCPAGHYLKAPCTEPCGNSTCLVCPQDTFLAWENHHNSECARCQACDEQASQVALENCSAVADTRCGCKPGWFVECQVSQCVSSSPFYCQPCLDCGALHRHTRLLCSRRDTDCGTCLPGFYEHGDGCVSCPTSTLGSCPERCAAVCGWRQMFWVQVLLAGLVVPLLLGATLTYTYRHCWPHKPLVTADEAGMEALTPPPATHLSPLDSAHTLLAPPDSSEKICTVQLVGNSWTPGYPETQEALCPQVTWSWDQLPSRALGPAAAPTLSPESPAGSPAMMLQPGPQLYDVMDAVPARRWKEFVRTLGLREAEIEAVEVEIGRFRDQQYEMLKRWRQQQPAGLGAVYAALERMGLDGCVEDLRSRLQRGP

T2: cynomolgus monkey TL1A produced by PBMCs in stimulated whole blood (cynomolgus monkey, UniProt G7PRK8 72-251)
T2 sequence: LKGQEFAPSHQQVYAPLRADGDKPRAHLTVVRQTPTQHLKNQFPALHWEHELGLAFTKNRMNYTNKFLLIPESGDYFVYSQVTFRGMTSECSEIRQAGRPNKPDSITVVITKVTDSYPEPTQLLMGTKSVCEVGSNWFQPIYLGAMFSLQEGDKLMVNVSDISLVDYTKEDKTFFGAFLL

T3: recombinant cynomolgus monkey TL1A protein (cynomolgus monkey, UniProt G7PRK8 72-251)
T3 sequence: T2 sequence

T4: membrane-bound human TL1A on TNFSF15/HEK293 cells (human, UniProt O95150 1-251)
T4 construct: whole, on cells; also called membrane-associated TL1A
T4 sequence (looked up): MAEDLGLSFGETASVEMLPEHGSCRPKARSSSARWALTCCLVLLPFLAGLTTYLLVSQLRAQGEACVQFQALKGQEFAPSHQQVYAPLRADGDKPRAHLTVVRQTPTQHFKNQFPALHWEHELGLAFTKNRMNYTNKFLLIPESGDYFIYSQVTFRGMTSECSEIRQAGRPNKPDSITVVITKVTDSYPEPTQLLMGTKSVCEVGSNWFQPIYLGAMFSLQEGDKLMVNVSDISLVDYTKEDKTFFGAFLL

T5: TNFSF6 (FasL) (UniProt P48023 134-281, limits assumed)
T5 sequence (looked up): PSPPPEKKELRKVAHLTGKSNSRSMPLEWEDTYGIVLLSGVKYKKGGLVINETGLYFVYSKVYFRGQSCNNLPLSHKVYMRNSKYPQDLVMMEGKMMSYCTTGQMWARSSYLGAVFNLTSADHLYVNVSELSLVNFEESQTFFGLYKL

T6: recombinant mouse TL1A protein (mouse, UniProt Q5UBV8 76-252, limits assumed)
T6 construct: also called murine TL1A
T6 sequence (looked up): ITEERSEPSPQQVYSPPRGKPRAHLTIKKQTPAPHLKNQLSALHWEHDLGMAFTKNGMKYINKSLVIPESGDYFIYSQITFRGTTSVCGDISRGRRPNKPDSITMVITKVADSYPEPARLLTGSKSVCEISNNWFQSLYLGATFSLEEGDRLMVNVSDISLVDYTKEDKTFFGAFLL

T7: recombinant rat TL1A protein (rat, UniProt Q8K3Y7 76-252, limits assumed)
T7 sequence (looked up): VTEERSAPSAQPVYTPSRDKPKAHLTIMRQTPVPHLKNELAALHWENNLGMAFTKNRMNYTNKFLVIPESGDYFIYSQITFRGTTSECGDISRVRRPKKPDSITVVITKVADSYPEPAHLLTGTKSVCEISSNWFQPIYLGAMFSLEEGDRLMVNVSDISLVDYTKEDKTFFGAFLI

B1: recombinant human TL1A protein (ligand, UniProt O95150 72-251, looked up)
chain: T2 sequence with L39F, V78I
notes: also called tumor necrosis factor-like cytokine 1A; TNFSF15
B2: anti-TL1A antibody A219 (antibody, V domains shown)
VH: QVQLVQSGAEVKKPGASVKVSCKASGFDIQDTYMHWVKQRPGQGLEWMGRIDPASGHTKYDPKFQVRVTITRDTSTSTVYLELSSLRSEDTAVYYCARSGGLPDVWGQGTTVTVSS
VL: EIVLTQSPGTLSLSPGERATLSCRASSSVSYMYWYQQKPGQAPRPLIYATSNLASGIPDRFSGSGSGTDFTLTISRLEPEDFAVYYCQQWEGNPRTFGGGTKLEIK
notes: Humanized monoclonal antibody; Molecular weight 143938 Daltons; The constant region is not tied to A219 in the readable text

For assay [1], the target named is T1, DR3 receptor on human TF-1 cells. The assay is described as follows: TF-1 cell caspase activation assay.
Assay [2] has as its target B1. The assay is described as follows: cell-based or functional assay.
For assay [3], the target named is T2, cynomolgus monkey TL1A produced by …. Briefly: cell-based or functional assay.
Assay [4] concerns the target T3, recombinant cynomolgus monkey TL1A …. The assay is described as follows: cell-based or functional assay.
In assay [5] the target is T4, membrane-bound human TL1A on …. Briefly: binding to TNFSF15/HEK293 cells that carry human TL1A, dose-dependent.
Assay [6] concerns the target B1. The assay is described as follows: surface plasmon resonance (SPR), recombinant TL1A protein.
The target of assay [7] is T3, recombinant cynomolgus monkey TL1A …. The assay is described as above.
The next assay concerns the target TNFSF14 (LIGHT) (UniProt O43557 74-240, limits assumed). The assay is described as follows: ELISA. (An ELISA detects its analyte on a solid surface through an enzyme-linked reagent.)
The target in the next assay is TNFSF10 (TRAIL) (UniProt P50591 114-281, limits assumed). The assay is described as follows: ELISA.
Sequence of TNFSF10 (TRAIL) (P50591 114-281 limits assumed): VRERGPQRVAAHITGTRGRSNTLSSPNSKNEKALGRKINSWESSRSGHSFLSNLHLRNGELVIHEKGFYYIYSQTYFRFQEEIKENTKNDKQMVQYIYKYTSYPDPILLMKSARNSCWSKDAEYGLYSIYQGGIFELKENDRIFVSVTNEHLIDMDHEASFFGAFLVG
Another assay deals with T5, TNFSF6 (FasL). Briefly: ELISA.
Assay [8] has as its target T3, recombinant cynomolgus monkey TL1A …. Briefly: ELISA, binding to recombinant TL1A protein.
Assay [9] addresses T6, recombinant mouse TL1A protein. The assay is described as follows: ELISA on recombinant TL1A protein.
The target of assay [10] is T7, recombinant rat TL1A protein. The assay is described as follows: ELISA on recombinant TL1A protein.

Sequence of TNFSF14 (LIGHT) (O43557 74-240 limits assumed): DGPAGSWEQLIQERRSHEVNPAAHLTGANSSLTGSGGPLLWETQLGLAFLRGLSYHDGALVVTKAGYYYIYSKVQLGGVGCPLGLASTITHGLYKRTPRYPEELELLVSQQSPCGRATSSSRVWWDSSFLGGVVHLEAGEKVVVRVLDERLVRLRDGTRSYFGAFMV

Regarding B1, the binding result in assay [1] is listed as “binds”.

By EC50 is commonly meant the concentration needed to bring the measured effect to its halfway point. Usually Kd stands for the free concentration of one partner at which half of the binding sites on the other are occupied at equilibrium, for simple one-to-one binding. By IC50 is commonly meant the concentration at which inhibition is half-maximal. Consider B2, for which the “inhibition of TL1A-induced caspase activation in TF-1 cells (IC50)” value in [2] came out at 0.27 nM; in [4], 0.59 nM. Besides, in [3], the “inhibition of the IFN-gamma response in monkey whole blood (mean IC50)” value is 1.54 nM and 289 ng/mL. Moreover, the EC50 in assay [5] is 17.4 nM. Besides, the dissociation constant Kd in assay [6] stood at 0.06 nM; in [7], 0.04 nM. Besides, the binding result (with TNFSF14 (LIGHT); with TNFSF10 (TRAIL); with TNFSF6 (FasL); in [9]; in [10]) was “no binding” each time. Besides, the IC50 in assay [8] turned out to be 0.47 nM.
